Experimental findings from patent US20250051437A1 are described below.

By Kd is commonly meant the equilibrium constant for the complex coming apart.

In test [1] the target is human cadherin-17 (CDH17), endogenously expressed on human cancer cell lines (LS513, SNU-C1, PaTu8988s, HPAF-II) (human) (UniProt Q12864). The test can be described thus: flow cytometry (iQue) on LS513 cells; secondary antibody only, background control. A general note: Flow cytometry measures light scatter and fluorescence of single cells or particles in a stream.
Test [2] shares this target. The test can be described thus: flow cytometry (iQue) on SNUC1 cells; secondary antibody only, background control.
For test [3] the target is unchanged. Put plainly: flow cytometry (iQue) on PATU8988S cells; secondary antibody only, background control.
The target of test [4] is human CDH17-mGFP fusion protein overexpressed on HEK293T cells (clone G11) (human) (UniProt Q12864). Put plainly: flow cytometry (iQue) on HEK293T CDH17 mGFP clone G11 (human); secondary antibody only, background control.
The target is the same in test [5]. Put plainly: flow cytometry (BD C6), secondary antibody alone on HEK293T CDH17 mGFP G11 cells; on HEK293T Parental: 507.66.
The target in test [6] is mouse CDH17-mGFP fusion protein overexpressed on HEK293T cells (mouse) (UniProt Q9R100). Put plainly: flow cytometry (BD C6), secondary antibody alone on HEK293T Mouse CDH17 mGFP cells; on HEK293T Parental: 507.66.
Chain of mouse CDH17-mGFP fusion protein overexpressed on HEK293T cells (mouse) (Q9R100 26-827): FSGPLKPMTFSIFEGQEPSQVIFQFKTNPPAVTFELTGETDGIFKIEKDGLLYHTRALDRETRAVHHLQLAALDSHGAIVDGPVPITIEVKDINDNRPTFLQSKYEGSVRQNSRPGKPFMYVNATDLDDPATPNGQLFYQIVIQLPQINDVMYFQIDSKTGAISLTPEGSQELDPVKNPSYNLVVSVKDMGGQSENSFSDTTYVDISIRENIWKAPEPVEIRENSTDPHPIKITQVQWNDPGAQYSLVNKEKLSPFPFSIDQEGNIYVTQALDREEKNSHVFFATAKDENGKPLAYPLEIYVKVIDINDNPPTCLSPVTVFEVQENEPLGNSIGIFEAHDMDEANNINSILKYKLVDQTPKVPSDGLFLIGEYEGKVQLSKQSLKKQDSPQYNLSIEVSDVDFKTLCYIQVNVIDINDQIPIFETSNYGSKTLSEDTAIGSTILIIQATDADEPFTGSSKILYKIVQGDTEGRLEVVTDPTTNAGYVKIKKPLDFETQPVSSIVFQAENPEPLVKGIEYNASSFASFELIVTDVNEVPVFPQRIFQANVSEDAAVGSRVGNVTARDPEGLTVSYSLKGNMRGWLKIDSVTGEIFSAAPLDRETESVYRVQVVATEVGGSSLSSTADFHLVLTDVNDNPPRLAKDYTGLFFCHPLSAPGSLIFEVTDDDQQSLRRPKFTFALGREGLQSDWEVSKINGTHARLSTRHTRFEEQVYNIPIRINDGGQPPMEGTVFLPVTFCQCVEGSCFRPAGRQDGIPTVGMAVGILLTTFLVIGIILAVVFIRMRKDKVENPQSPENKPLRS
In test [7] the target is rat CDH17 fused to moxGFP, overexpressed on HEK293T cells (rat) (UniProt P55281). The test can be described thus: flow cytometry (BD C6), secondary antibody alone on HEK293T Rat CDH17 moxGFP cells; on HEK293T Parental: 507.66.
Chain of rat CDH17 fused to moxGFP, overexpressed on HEK293T cells (rat) (P55281 22-827): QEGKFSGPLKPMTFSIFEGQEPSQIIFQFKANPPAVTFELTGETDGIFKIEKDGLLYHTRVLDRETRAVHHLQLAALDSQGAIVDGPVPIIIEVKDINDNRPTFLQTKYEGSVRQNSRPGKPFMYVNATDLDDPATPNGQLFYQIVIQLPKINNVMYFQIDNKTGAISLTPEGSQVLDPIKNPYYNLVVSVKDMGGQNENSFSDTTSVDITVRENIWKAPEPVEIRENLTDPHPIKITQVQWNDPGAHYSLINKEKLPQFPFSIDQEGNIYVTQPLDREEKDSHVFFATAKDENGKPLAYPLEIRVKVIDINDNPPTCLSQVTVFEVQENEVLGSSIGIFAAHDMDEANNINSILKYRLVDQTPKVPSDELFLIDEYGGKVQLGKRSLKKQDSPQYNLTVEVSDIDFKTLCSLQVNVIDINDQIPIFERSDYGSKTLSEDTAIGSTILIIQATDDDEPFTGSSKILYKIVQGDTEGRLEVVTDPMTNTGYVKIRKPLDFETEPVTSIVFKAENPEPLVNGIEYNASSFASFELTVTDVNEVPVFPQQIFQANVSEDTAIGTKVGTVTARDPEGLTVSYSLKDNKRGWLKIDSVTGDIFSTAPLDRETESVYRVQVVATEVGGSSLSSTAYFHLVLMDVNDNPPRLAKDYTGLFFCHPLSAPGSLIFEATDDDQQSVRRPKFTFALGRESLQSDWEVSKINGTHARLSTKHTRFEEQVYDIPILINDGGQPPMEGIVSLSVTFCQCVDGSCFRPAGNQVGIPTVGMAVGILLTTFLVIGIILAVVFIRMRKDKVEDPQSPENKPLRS
The target of test [8] is monkey (crab-eating macaque) CDH17 fused to moxGFP, overexpressed on HEK293T cells (monkey (crab-eating macaque)). The test can be described thus: flow cytometry (BD C6), secondary antibody alone on HEK293T Macaque CDH17 moxGFP cells; on HEK293T Parental: 507.66.
In the next test the target is BT474 Cells. The test can be described thus: KinExA using BT474 Cells.
The target of test [9] is human cadherin-17 (CDH17), endogenously expressed on human cancer cell lines (LS513, SNU-C1, PaTu8988s, HPAF-II) (human) (UniProt Q12864). Put plainly: indirect flow cytometry (iQue) on LS513 cells (CDH17+); secondary antibody only, background control.

For “fluorochrome-labelled anti-human IgG secondary antibody alone (2nd Ab only control)”, the Antibody Binding Activity by Flow iQue in test [1] was 4900; in [2] it was 3900; in test [3], 5930; in [4] it was 1960. Besides, the FL4-H is 727 in test [5], 740 in test [6], 633 in test [7] and 720 in test [8].

Herceptin (antibody) had a Kd with BT474 Cells of 0.769 nM.

Take “AF647-anti-his tag 2° Ab (secondary antibody alone, control)”: the FL4-H in test [9] came to 33200.
